Laboratory results published in publication PMC11581024 (bioRxiv, 2024).

Molecular target: the molecule itself
Experiment: SEC-MALS

B1: Treponema denticola ComFB (natural protein)
chain: MIIHNVMEDLVYTEVNKLFDEAEEKKESWLTCSCMQCRVDTMCYVLNRVKPRYIKSGRGLAHFLKFEKTEKVQIMADITSLVIEGMHRVLSTKRPHDHEPIFETENTPVFNFPAITGNILNGSNFRPMEDATISLKMNGELVSQMSILWDNPYTISEKTPGAYTFCPKAIPAKNAGDKEKFIFVLKAEKEGFDPTNFSFDIELTAEDMVKSPLDSSNFYQIKNLFLCEHSEEE
stoichiometry N: 2
